± gives the half width of the 95% confidence interval.
How the values were obtained:
[1] = folding stability dG unfold from trypsin proteolysis; higher = more stable
Summary of the method: (§1)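 Unfolding free energy was derived, per protease or combined, by relating Bayesian-fitted K50 values from sequencing counts to a sequence-predicted unfolded-state K50 and a shared folded-state K50. The underlying digests exposed cysteine-free mini-proteins under 80 residues, in a PA-tagged cDNA display construct, to trypsin and chymotrypsin at 11 threefold-diluted concentrations and to a no-protease condition. A filter kept only designs with AlphaFold2 dimer inter-PAE above 15.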

[2] = folding stability dG unfold (combined trypsin and chymotrypsin); higher = more stable
Summary of the method: as §1

[3] = folding stability dG unfold from chymotrypsin proteolysis; higher = more stable
Summary of the method: as §1

Sequence | folding stability dG unfold [1] [kcal/mol] | folding stability dG unfold [2] [kcal/mol] | folding stability dG unfold [3] [kcal/mol]
SAGGRVRLEEVEILPPLEDPEDNPDRPLLLLRVRARVEYDTPEGPREEERELVLVVSPERLEEALEALSAGG [r13_149_TrMRF] | 0.794 ± 0.075 | 1.37 ± 0.16 | 1.62 ± 0.13
SAGGGSISISLPAEELKALSPEDVIEVTAPDGTKIKAKPVKKGDTYPVTAEDPNNPKNATEMGTATLPSAGG [r13_745_JUSTAS] | 0.0233 ± 0.084 | 0.176 ± 0.19 | 0.4 ± 0.095
SAGGSAGGSAGETVTLTLTVTVTRTYYDAETGEEVEQETETRTLTLTMSKEELERLLKELSAGGSAGGSAGG [r17_283_TrROS_Hall] | 3.28 ± 0.13 | 4.44 ± 0.17 | 4.66 ± 0.11
SMKIKIPVLIKVDPSETIEEVLEKVKEIAEEIAKFLESKGGPVEVKADVEPIPEIDYVIVTVEAYVPEEASA [r9_1161_TrMRF] | 1.53 ± 0.075 | 1.54 ± 0.17 | 1.8 ± 0.082
SAGGSAGGSMPVKRELIITVTEPSSGTTRTLVVEVETEEEAEAVVAAVAAVPDRTVTEVRRLASAGGSAGGS [r12_152_JUSTAS] | 0.109 ± 0.083 | 0.926 ± 0.057 | 1.26 ± 0.022
SAGEVELKIVLPKEEIEKILEALRKLAEEAGLEVEVEKIEKKEDGYYVITVTVKFKETEKEIKIEIIIPSAG [r5_41_TrROS_Hall] | 3 ± 0.51 | 2.69 ± 0.31 | 2.55 ± 0.12
SAGGSAGGSAMKIVKIEVVENEDGEKYVKIEIELENGEKIEITLPLEELENMSLEELLKLLKSAGGSAGGSA [r18_129_TrROS_Hall] | 2.94 ± 0.18 | 3.68 ± 0.12 | 3.94 ± 0.17
SAGGSAGGSAGGSSSIYYDPRYPNVAVNPETGEAVTGIPLEELEKLGATPVGPDWVRIDSAGGSAGGSAGGS [r4_306_TrMRF] | -0.659 ± 0.15 | -0.0656 ± 0.13 | 0.196 ± 0.061
SAGGSAGGSAGGMIVETLGDSPETVTLVKLPNKPIIRTYDPVTGTWTIYDPDTNKIYEISAGGSAGGSAGGS [r10_434_JUSTAS] | 1.39 ± 0.052 | 1.26 ± 0.098 | 0.872 ± 0.14
SAGGSAGGSAGGKIKLTVEKTEDGYLRVTAEDEDTKETVVITLPKGTTLEEALKLLKELSAGGSAGGSAGGS [r10_825_TrROS_Hall] | 3.14 ± 0.11 | 3.19 ± 0.17 | 3.08 ± 0.14
SAGPLPEDVAAGKPVDVEAPIPLRRKDGDLLAVFPITGPMTVKELLEVLEAIRERARELDLPPVEDLDRSAG [r5_606_TrMRF] | 0.36 ± 0.047 | 0.181 ± 0.065 | -0.268 ± 0.21
SAGIFRFPDGQEITIPYYARTPNGKITPSEIKEQIKEFLAEQPGVKITEIEVEHEDNYVRVTITVRLPKSAG [r5_688_TrROS] | 1.46 ± 0.14 | 1.01 ± 0.21 | 0.316 ± 0.42
SAGMTLTLELPVPPDMSEEEARALALARVREEVAALSPGGATVTPVAVSVDPETGTVSLEVEVEVPPLASAG [r5_146_JUSTAS] | 1.17 ± 0.032 | 1.35 ± 0.037 | 1.45 ± 0.042
SAGGSAMMTVTITIPKENLTKEEIKKALEEAGAKVVKVEEKDGKVTVTVEMTPEQVEKLKEALKKLSAGGSA [r15_161_TrROS_Hall] | 3.98 ± 0.46 | 4.14 ± 0.45 | 3.53 ± 0.28
SAGGMIAEIKPIPPNVPDGATATITFPDGTPAEAELRTEPLEDGPRRVVLKLKGKEGEIELEFVLPLSAGGS [r8_360_TrMRF] | 0.16 ± 0.13 | 0.0112 ± 0.099 | -0.488 ± 0.31
SAGGYIPASARIEVLEVFEDGTVRVRVTYPDGSEAEVVARLVRTADGRVYLEIFDPRTGRLLATLELTSAGG [r13_527_TrMRF] | 4.09 ± 0.09 | 3.88 ± 0.092 | 3.81 ± 0.054
SAGGSAGMPDPPLEGLKEALREALAANPGEEVTLTVPRADGRTLTVRGTKDGGIEITLPDGTRIALSAGGSA [r15_73_JUSTAS] | 1.58 ± 0.036 | 1.58 ± 0.072 | 1.52 ± 0.087
SAGGSAGGSAGGKPKVIEIEITDKNGKKRKIKLIEKDGYVYLYDEKTGKLVKKFKLKDLSAGGSAGGSAGGS [r10_589_TrROS_Hall] | 3.04 ± 0.097 | 3.61 ± 0.14 | 3.92 ± 0.051
SAGGSAGGSAGGSAKIDLPFPAEITEIRPRPDGSVEIRLSFPTYTVTAIIPPNGIKIYGSAGGSAGGSAGGS [r4_280_TrMRF] | 0.855 ± 0.017 | 0.487 ± 0.065 | -0.0211 ± 0.11
SAGGSAGGSAPLIELRPPEEPLFLPLENLLGRGIPLEELAKLLEKLTGRKVEPVKPGYIRTGSAGGSAGGSA [r18_7_TrMRF] | -0.192 ± 0.38 | -0.161 ± 0.44 | -0.128 ± 0.25
SAGGDVVRVRVRLRRFEIVGDRPVYRPVDIDILAEADGDPEAARRRAEREARRLAEEYGAEIEDIELFPSAG [r5_497_TrMRF] | 2.15 ± 0.026 | 2.4 ± 0.083 | 2.57 ± 0.04

Sequence | folding stability dG unfold [1] [kcal/mol] | folding stability dG unfold [2] [kcal/mol] | folding stability dG unfold [3] [kcal/mol]
SAGGSAGGSAGYKPGEVVYIEVEDPETGKSLKVPVKVPENMTPEQAKKLAEEAAKKYREGSAGGSAGGSAGG [r11_355_TrMRF] | 1.57 ± 0.082 | 2.02 ± 0.16 | 2.22 ± 0.095
SAGGMTIKPGETVEIEVGGKKITLTRNENGELTITIEDEETGETLTITVPKDTTLEEVLKKIEELLKSAGGS [r8_158_TrROS_Hall] | 4.04 ± 0.15 | 3.61 ± 0.06 | 3.45 ± 0.064
SAMVEVSTLPDGTTRVTITGKDPAAFEKELAELIEKIKKEGINATITKTREEPIPEEPELYRAELEIIVSAG [r14_119_JUSTAS] | 1.54 ± 0.062 | 1.54 ± 0.25 | 1.48 ± 0.055
SAGGSAGGPEVKILKVDPENNTITLALPVDNEILLLEIKIEPDPENPNSFKATIELKVFPYNEASAGGSAGG [r6_371_TrMRF] | 2.33 ± 0.28 | 2.8 ± 0.26 | 3.21 ± 0.096
SAGGSAGGSAGGAVTPETIELPDATITVYTYPEGVVVEVTDPETGQATVISPEEFERLLASAGGSAGGSAGG [r7_372_JUSTAS] | 1.78 ± 0.044 | 1.5 ± 0.057 | 1.21 ± 0.034
SAGEFEVLEVREVDGRLVVRLALPDKPEVVTIVLERHPDGSVRALIEAEGEAADRIVEALPELDEVVVASAG [r5_933_TrMRF] | 1.9 ± 0.036 | 2.46 ± 0.15 | 2.64 ± 0.11
SAKKVPKIEKIEFIPGPNLVKITIPVPEKDKLLVTIDLKDKKLEFELKKNTSFYFSAKYADIKVSVEKKSAG [r14_96_TrMRF] | 2.28 ± 0.16 | 3 ± 0.2 | 3.11 ± 0.14
SAGGMPLVELEIVLPKEELEKLEEALRKLGYKVVKIEVVEYDPENDLVRVRIVLEKPMTLEELKKALKSAGG [r13_725_TrROS_Hall] | 3.72 ± 0.11 | 4.63 ± 0.61 | 4.74 ± 0.18
SAGGSAGGSAGGGSSVITTTETDPANGLLTTTTTTINGSETVPSSTVSPVPPPPPPSTLSAGGSAGGSAGGS [r10_354_JUSTAS] | 1.67 ± 0.14 | 1.11 ± 0.12 | 0.0312 ± 0.094
SAGGSAGGSAGGMYFIRIKPPNGEELVILIPPGDEIKIKDADGRPWKITDVYPMPPEQFSAGGSAGGSAGGS [r10_422_TrROS] | -0.17 ± 0.27 | 0.0506 ± 0.41 | -0.118 ± 0.73
SAGGSAGGSAGGDESYRKLLEELPLPVTEIVVETVPLPETDEPITVVTPKNPDGKEVTLGSAGGSAGGSAGG [r7_337_JUSTAS] | -0.0426 ± 0.037 | -0.284 ± 0.14 | -0.557 ± 0.084
SAGGSALKIPSGKKYTVVVKDPNKPVEYVADVIERHPDSILIEVKDPNSSKTKKITVPTNVITIDLSAGGSA [r15_381_JUSTAS] | -0.095 ± 0.15 | 0.464 ± 0.19 | 0.684 ± 0.16
SAGGSAMTKVTVTFDPVTGTYTIKTTDSKGPSEYPLPKSFLEKTPLSEVAKKLNLNISEFTIEPNPSAGGSA [r15_801_JUSTAS] | 0.771 ± 0.044 | 1.14 ± 0.092 | 1.25 ± 0.099
SAGGSAGGEISFDPETGKLTILAPSSISPDAIKKAIEEAGIPFKITSVSYIPDPKTLKVEYEISSAGGSAGG [r6_395_TrMRF] | 0.841 ± 0.025 | 0.719 ± 0.19 | 0.249 ± 0.29
SAGGSMLFLRVRIEVRPPTAEDLAEGKEVKEVEILVEFDSVEELKEALEKLPPNAKVEVELVELEESAGGSA [r2_25_TrROS_Hall] | 2.36 ± 0.26 | 2.83 ± 0.53 | 2.9 ± 0.17
SAGIVIPINNPEQAEELAKEFAPEYGYEVEIERVPPGEPLEELPPNDIIVHDPDSGWFYKIKIKRPDEKSAG [r5_173_TrROS] | 0.38 ± 0.1 | 0.29 ± 0.24 | 0.134 ± 0.43
SADEALRRLLENMTPEELAALLAPAVPGPPVEVLVVPREVLPEVLRRLREEFDVEFEEEGDFVRIVVRGSAG [r14_7_TrMRF] | 2.28 ± 0.029 | 2.73 ± 0.04 | 2.915 ± 0.016
SAGGMKVTVTEDGSSSKVTITIKDPKTGIEKTYTATATVLPDGTVVYTITYPDGSKKTIPSSELELSSAGGS [r16_154_JUSTAS] | 2.11 ± 0.087 | 3.61 ± 0.11 | 4.02 ± 0.051
SAGGKIIAEGEFELEDGYVVRVKVEYDEETGELRVEVEVFEVEVELPEVEVKREFSDEELTEEEKEASAGGS [r8_461_TrROS_Hall] | 0.897 ± 0.19 | 1.39 ± 0.25 | 1.77 ± 0.17
DTVTIVVEGMSEEEVLEKARAAAEELAKEGKTVEIVVKLSPEALKKAGVEKVEEVEDEETGLLVIKVEVKPS [r1_467_TrROS_Hall] | 1.04 ± 0.13 | 0.684 ± 0.28 | 0.599 ± 0.07
SANEKVTVEVKIRFYFRFPKGQPFPFDITVPVTVEYDPNDPDKAKEEAKEKAIDEAIDEFRERFGYPLPSAG [r14_117_TrROS] | 1.75 ± 0.13 | 2.37 ± 0.19 | 2.72 ± 0.13

Reference: the supplement of paper PMC12764529
